Test results from patent publication EP4786495A1 (Nanjing Leads Biolabs Co., Ltd., dated 2026).

T1: human BDCA2 protein (Kactus Biosystems, Cat# BCA-HM402) (human, UniProt Q8WTT0 45-213)
T1 construct: also called Human BDCA2-His
T1 sequence: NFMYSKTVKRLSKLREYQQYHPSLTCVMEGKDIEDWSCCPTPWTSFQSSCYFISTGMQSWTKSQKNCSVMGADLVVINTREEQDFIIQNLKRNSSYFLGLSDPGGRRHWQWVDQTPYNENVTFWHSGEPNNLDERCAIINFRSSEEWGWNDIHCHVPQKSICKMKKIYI

T2: human APRIL protein (ACRO Biosystems, Cat. No.: APL-H52D1) (human, UniProt O75888 115-250, limits assumed)
T2 sequence (looked up): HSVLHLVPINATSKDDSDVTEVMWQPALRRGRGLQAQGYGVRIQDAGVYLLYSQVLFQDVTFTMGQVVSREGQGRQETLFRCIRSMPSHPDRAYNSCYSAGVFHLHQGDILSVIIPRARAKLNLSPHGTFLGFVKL


What was measured:
[1] = target: T1, human BDCA2 protein (Kactus Biosystems, …); assay: BLI Octet RED96e, antibody captured on AHC sensor, BDCA2 100 nM in solution
[2] = target: T3, human BAFF protein (ACRO Biosystems, Cat. No.: BAF-H52D4) (human, UniProt Q9Y275 134-285); assay: BLI Octet RED96e, protein captured on AHC sensor, BAFF 100 nM in solution
[3] = target: T1, human BDCA2 protein (Kactus Biosystems, …); assay: BLI Octet RED96e, protein captured on AHC sensor, BDCA2 100 nM in solution
[4] = target: T2, human APRIL protein (ACRO Biosystems, …); assay: BLI Octet RED96e, protein captured on AHC sensor, APRIL 100 nM in solution
[5] = target: T3, human BAFF protein (ACRO Biosystems, …); assay: BLI Octet RED96e, protein captured on AHC sensor, BAFF 1.56-100 nM in solution
[6] = target: T2, human APRIL protein (ACRO Biosystems, …); assay: BLI Octet RED96e, protein captured on AHC sensor, APRIL 1.56-100 nM in solution
[7] = target: T1, human BDCA2 protein (Kactus Biosystems, …); assay: BLI Octet RED96e, fusion protein captured on AHC sensor, BDCA2 1.56-100 nM in solution

| Binder | Kd [2] [nM] | Response (nm) [2] [nm] | koff [2] [s⁻¹] | kon [2] [M⁻¹ s⁻¹] | Kd [3] [nM] | Response (nm) [3] [nm] | koff [3] [s⁻¹] | kon [3] [M⁻¹ s⁻¹] | Kd [4] [nM] | Response (nm) [4] [nm] | koff [4] [s⁻¹] | kon [4] [M⁻¹ s⁻¹] | other results |
| --- | --- | --- | --- | --- | --- | --- | --- | --- | --- | --- | --- | --- | --- |
| anti-BDCA2 humanized antibody Hu37F2C6-8 (antibody, human IgG1, kappa, V domains shown) VH: QVQLVQSGAEVKKPGASVKVSCKASGYTFTDFAVHWVRQAPGQRLEWMGLIGTSSGSTNYNQKFQGRVTMTVDKSANTAYMELSSLRSEDTAVYYCARNGYYVGYYALDYWGQGTTVTVSS VL: ETVLTQSPATLSLSPGERATLSCRASSSVSYMYWFQQKPGQAPRLLIYSTSNLASGIPARFSGSGSGTDYTLTISSLEPEDFAVYYCQQRRNYPHTFGGGTKVEIKR |  |  |  |  |  |  |  |  |  |  |  |  | Kd [1]: < 0.001 nM; koff [1]: < 1e-07 s⁻¹; kon [1]: 113000 M⁻¹ s⁻¹ |
| anti-BDCA2 humanized antibody Hu37F2C6-9 (antibody, human IgG1, kappa, V domains shown, also called humanized 37F2C6-9) VH: QVQLVQSGAEVKKPGASVKVSCKASGYTFTDFAVHWVRQAPGQRLEWMGLIGTSSGSTNYNQKFQGRATMTVDKSANTAYMELSSLRSEDTAVYYCARNGYYVGYYALDYWGQGTTVTVSS VL: ETVLTQSPATLSLSPGERATLSCRASSSVSYMYWFQQKPGQAPRLLIYSTSNLASGIPARFSGSGSGTDYTLTISSLEPEDFAVYYCQQRRNYPHTFGGGTKVEIKR |  |  |  |  |  |  |  |  |  |  |  |  | Kd [1]: < 0.001 nM; koff [1]: < 1e-07 s⁻¹; kon [1]: 121000 M⁻¹ s⁻¹ |
| bispecific fusion protein BI-9D2-3G4S-8S (bispecific antibody, human IgG1, kappa) heavy: not shown light: ETVLTQSPATLSLSPGERATLSCRASSSVSYMYWFQQKPGQAPRLLIYSTSNLASGIPARFSGSGSGTDYTLTISSLEPEDFAVYYCQQRRNYPHTFGGGTKVEIKRTVAAPSVFIFPPSDEQLKSGTASVVCLLNNFYPREAKVQWKVDNALQSGNSQESVTEQDSKDSTYSLSSTLTLSKADYEKHKVYACEVTHQGLSSPVTKSFNRGEC | < 0.001 | 0.394 | < 1e-07 | 402000 | < 0.001 | 0.476 | < 1e-07 | 154000 | 0.166 | 0.29 | 0.000134 | 808000 |  |
| bispecific fusion protein BI-9D2-2GS4 (bispecific antibody, human IgG1, kappa) heavy: not shown light: ETVLTQSPATLSLSPGERATLSCRASSSVSYMYWFQQKPGQAPRLLIYSTSNLASGIPARFSGSGSGTDYTLTISSLEPEDFAVYYCQQRRNYPHTFGGGTKVEIKRTVAAPSVFIFPPSDEQLKSGTASVVCLLNNFYPREAKVQWKVDNALQSGNSQESVTEQDSKDSTYSLSSTLTLSKADYEKHKVYACEVTHQGLSSPVTKSFNRGEC | < 0.001 | 0.302 | < 1e-07 | 412000 | < 0.001 | 0.56 | < 1e-07 | 151000 | 0.391 | 0.242 | 0.000339 | 866000 |  |
| bispecific fusion protein BI-9NTACI-A (bispecific antibody, human IgG1, kappa, also called heavy chain 37F2C6-HuVH3-3N-TACI) heavy: not shown light: ETVLTQSPATLSLSPGERATLSCRASSSVSYMYWFQQKPGQAPRLLIYSTSNLASGIPARFSGSGSGTDYTLTISSLEPEDFAVYYCQQRRNYPHTFGGGTKVEIKRTVAAPSVFIFPPSDEQLKSGTASVVCLLNNFYPREAKVQWKVDNALQSGNSQESVTEQDSKDSTYSLSSTLTLSKADYEKHKVYACEVTHQGLSSPVTKSFNRGEC |  |  |  |  |  |  |  |  |  |  |  |  | Kd [5]: 0.951 nM; koff [5]: 0.000342 s⁻¹; kon [5]: 360000 M⁻¹ s⁻¹; Kd [6]: 0.619 nM; koff [6]: 0.000478 s⁻¹; kon [6]: 772000 M⁻¹ s⁻¹; Kd [7]: < 0.001 nM; koff [7]: < 1e-07 s⁻¹; kon [7]: 85400 M⁻¹ s⁻¹ |
| bispecific fusion protein BI-9D2-3G4S-4S (bispecific antibody, human IgG1, kappa) heavy: not shown light: ETVLTQSPATLSLSPGERATLSCRASSSVSYMYWFQQKPGQAPRLLIYSTSNLASGIPARFSGSGSGTDYTLTISSLEPEDFAVYYCQQRRNYPHTFGGGTKVEIKRTVAAPSVFIFPPSDEQLKSGTASVVCLLNNFYPREAKVQWKVDNALQSGNSQESVTEQDSKDSTYSLSSTLTLSKADYEKHKVYACEVTHQGLSSPVTKSFNRGEC | < 0.001 | 0.358 | < 1e-07 | 382000 | < 0.001 | 0.457 | < 1e-07 | 155000 | 0.528 | 0.285 | 0.000435 | 824000 |  |
| bispecific fusion protein BI-9D2-1GS4 (bispecific antibody, human IgG1, kappa) heavy: not shown light: ETVLTQSPATLSLSPGERATLSCRASSSVSYMYWFQQKPGQAPRLLIYSTSNLASGIPARFSGSGSGTDYTLTISSLEPEDFAVYYCQQRRNYPHTFGGGTKVEIKRTVAAPSVFIFPPSDEQLKSGTASVVCLLNNFYPREAKVQWKVDNALQSGNSQESVTEQDSKDSTYSLSSTLTLSKADYEKHKVYACEVTHQGLSSPVTKSFNRGEC | < 0.001 | 0.299 | < 1e-07 | 400000 | < 0.001 | 0.591 | < 1e-07 | 149000 | 0.724 | 0.261 | 0.000589 | 813000 |  |

Continued, in another order:

| Kd [2] [nM] | Response (nm) [2] [nm] | koff [2] [s⁻¹] | kon [2] [M⁻¹ s⁻¹] | Kd [3] [nM] | Response (nm) [3] [nm] | koff [3] [s⁻¹] | kon [3] [M⁻¹ s⁻¹] | Kd [4] [nM] | Response (nm) [4] [nm] | koff [4] [s⁻¹] | kon [4] [M⁻¹ s⁻¹] | Binder | other results |
| --- | --- | --- | --- | --- | --- | --- | --- | --- | --- | --- | --- | --- | --- |
| < 0.001 | 0.34 | < 1e-07 | 422000 | 0.234 | 0.551 | 3.58e-05 | 153000 | 0.616 | 0.251 | 0.000582 | 944000 | bispecific fusion protein BI-9D2-3GS4 (bispecific antibody, human IgG1, kappa) heavy: not shown light: ETVLTQSPATLSLSPGERATLSCRASSSVSYMYWFQQKPGQAPRLLIYSTSNLASGIPARFSGSGSGTDYTLTISSLEPEDFAVYYCQQRRNYPHTFGGGTKVEIKRTVAAPSVFIFPPSDEQLKSGTASVVCLLNNFYPREAKVQWKVDNALQSGNSQESVTEQDSKDSTYSLSSTLTLSKADYEKHKVYACEVTHQGLSSPVTKSFNRGEC |  |
| < 0.001 | 0.468 | < 1e-07 | 522000 | < 0.001 | 0.484 | < 1e-07 | 125000 | 0.0667 | 0.298 | 7.79e-05 | 1.17e+06 | bispecific fusion protein BI-9ND2-4GS4 (bispecific antibody, human IgG1, kappa) heavy: not shown light: ETVLTQSPATLSLSPGERATLSCRASSSVSYMYWFQQKPGQAPRLLIYSTSNLASGIPARFSGSGSGTDYTLTISSLEPEDFAVYYCQQRRNYPHTFGGGTKVEIKRTVAAPSVFIFPPSDEQLKSGTASVVCLLNNFYPREAKVQWKVDNALQSGNSQESVTEQDSKDSTYSLSSTLTLSKADYEKHKVYACEVTHQGLSSPVTKSFNRGEC |  |
| < 0.001 | 0.492 | < 1e-07 | 456000 | < 0.001 | 0.466 | < 1e-07 | 115000 | 0.275 | 0.339 | 0.000257 | 937000 | bispecific fusion protein BI-9ND2-2GS4 (bispecific antibody, human IgG1, kappa) heavy: not shown light: ETVLTQSPATLSLSPGERATLSCRASSSVSYMYWFQQKPGQAPRLLIYSTSNLASGIPARFSGSGSGTDYTLTISSLEPEDFAVYYCQQRRNYPHTFGGGTKVEIKRTVAAPSVFIFPPSDEQLKSGTASVVCLLNNFYPREAKVQWKVDNALQSGNSQESVTEQDSKDSTYSLSSTLTLSKADYEKHKVYACEVTHQGLSSPVTKSFNRGEC |  |
| < 0.001 | 0.487 | < 1e-07 | 489000 | < 0.001 | 0.473 | < 1e-07 | 117000 | 0.0944 | 0.327 | 9.99e-05 | 1.06e+06 | bispecific fusion protein BI-9ND2-3GS4 (bispecific antibody, human IgG1, kappa) heavy: not shown light: ETVLTQSPATLSLSPGERATLSCRASSSVSYMYWFQQKPGQAPRLLIYSTSNLASGIPARFSGSGSGTDYTLTISSLEPEDFAVYYCQQRRNYPHTFGGGTKVEIKRTVAAPSVFIFPPSDEQLKSGTASVVCLLNNFYPREAKVQWKVDNALQSGNSQESVTEQDSKDSTYSLSSTLTLSKADYEKHKVYACEVTHQGLSSPVTKSFNRGEC |  |
| < 0.001 | 0.0284 | < 1e-07 | 300000 | < 0.001 | 0.444 | < 1e-07 | 172000 | 6.5 | 0.296 | 0.000643 | 99000 | control antibody litifilimab analogue (antibody, human IgG1, kappa, V domains shown, Anti-BDCA2 control antibody expressed in ExpiCHO-S cells) VH: DVQLVESGGGLVKPGGSLRLSCAASGFTFSTYTMSWVRQAPGKGLEWVATISPGDSFGYYYPDSVQGRFTISRDNAKNSLYLQMNSLRAEDTAVYYCTRDIYYNYGAWFAYWGQGTLVTVSS VL: DIQLTQSPSSLSASVGDRVTITCKASQSVDYDGDSYMNWYQQKPGKAPKLLIYAASTLESGVPSRFSGSGSGTDFTLTISSLQPEDFATYYCQQANEDPRTFGQGTKVEIKR |  |
